# Measured values: patent US20170152290A1
# Target: sLRP1-CIV (cluster IV of LRP1 fused to the constant region of a human IgG1) (human)
# Assay: SPR (Biacore X), sLRP1-CIV immobilised on CM5 chip, peptide at 20 µM; RU observed at 160 s
binder,measurement,value
SSNIVIGIGDKALKINWSKKK (modifications not checked) [peptide HDIII3CLC-],RU (at 160 s),38.2 RU
CSNIVIGIGDKALKINACKKK (modifications not checked) [peptide HDIII3CLW-],RU (at 160 s),192 RU
